Experimental data from patent US20150064134A1.

Key:
Test in all cases: cell-based or functional assay
[1] = biological target: Abl(T315I)(h) (human) (UniProt P00519)
[2] = biological target: BTK(h) (human) (UniProt Q06187)
[3] = biological target: CDK3/cyclinE(h) (human) (UniProt Q00526)
[4] = biological target: CDK5/p35(h) (human) (UniProt Q00535)
[5] = biological target: T1, CHK1(h) (human) (UniProt O14757)
T1 sequence (looked up): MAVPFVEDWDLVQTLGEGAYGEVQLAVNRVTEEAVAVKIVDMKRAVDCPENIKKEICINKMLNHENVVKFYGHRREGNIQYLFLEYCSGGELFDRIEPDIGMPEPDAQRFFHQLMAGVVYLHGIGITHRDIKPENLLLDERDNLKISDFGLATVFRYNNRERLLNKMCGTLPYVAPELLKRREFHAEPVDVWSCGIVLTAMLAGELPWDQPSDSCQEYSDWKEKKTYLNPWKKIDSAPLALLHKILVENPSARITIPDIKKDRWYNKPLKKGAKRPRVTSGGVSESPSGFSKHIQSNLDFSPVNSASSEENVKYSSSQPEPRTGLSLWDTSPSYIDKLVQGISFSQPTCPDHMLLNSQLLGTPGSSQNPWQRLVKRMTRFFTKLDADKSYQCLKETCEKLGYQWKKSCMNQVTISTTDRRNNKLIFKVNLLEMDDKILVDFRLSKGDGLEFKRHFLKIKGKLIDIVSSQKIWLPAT

[6] = biological target: CaMKIIδ(h) (human) (UniProt Q13557)
[7] = biological target: CaMKIδ(h) (human) (UniProt Q8IU85)
[8] = biological target: EphB3(h) (human) (UniProt P54753)
[9] = biological target: FGFR3(h) (human) (UniProt P22607)
[10] = biological target: IR(h), activated (human) (UniProt P06213)
[11] = biological target: JAK2(h) (human) (UniProt O60674)
[12] = biological target: JAK3(h) (human) (UniProt P52333)
[13] = biological target: KDR(h) (human) (UniProt P35968)
[14] = biological target: Lck(h) (human) (UniProt P06239)
[15] = biological target: MKK6(h) (human) (UniProt P52564)
[16] = biological target: MLCK(h) (human)
[17] = biological target: MSSK1(h) (human) (UniProt Q9UPE1)
[18] = biological target: MST3(h) (human) (UniProt Q9Y6E0)
[19] = biological target: PDGFRα(D842V)(h) (human) (UniProt P16234)
[20] = biological target: PKCη(h) (human) (UniProt P24723)
[21] = biological target: Pyk2(h) (human) (UniProt Q14289)
[22] = biological target: T2, Ret(V804L)(h) (human) (UniProt P07949)
T2 sequence (looked up): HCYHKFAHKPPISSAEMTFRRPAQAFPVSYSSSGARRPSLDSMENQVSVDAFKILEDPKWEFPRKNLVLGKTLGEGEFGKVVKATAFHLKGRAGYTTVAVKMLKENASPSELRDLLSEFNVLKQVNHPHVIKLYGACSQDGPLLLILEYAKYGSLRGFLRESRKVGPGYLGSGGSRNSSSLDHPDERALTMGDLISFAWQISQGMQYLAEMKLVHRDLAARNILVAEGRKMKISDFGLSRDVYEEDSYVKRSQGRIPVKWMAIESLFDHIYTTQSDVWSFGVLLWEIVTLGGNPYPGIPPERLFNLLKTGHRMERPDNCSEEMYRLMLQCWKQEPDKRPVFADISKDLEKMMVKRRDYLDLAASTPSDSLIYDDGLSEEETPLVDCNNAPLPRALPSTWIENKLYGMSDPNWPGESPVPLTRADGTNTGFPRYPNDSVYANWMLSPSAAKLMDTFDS

[23] = biological target: SRPK1(h) (human) (UniProt Q96SB4)
[24] = biological target: Snk(h) (human) (UniProt Q9NYY3)
[25] = biological target: TLK2(h) (human) (UniProt Q86UE8)
[26] = biological target: cKit(V654A)(h) (human) (UniProt P10721)
[27] = biological target: mTOR/FKBP12(h) (human) (UniProt P42345)
[28] = biological target: p70S6K(h) (human) (UniProt P23443)
[29] = biological target: FGFR1(V561M)(h) (human) (UniProt P11362)
Chain of FGFR1(V561M)(h) (human) (P11362 456-765 V561M limits assumed): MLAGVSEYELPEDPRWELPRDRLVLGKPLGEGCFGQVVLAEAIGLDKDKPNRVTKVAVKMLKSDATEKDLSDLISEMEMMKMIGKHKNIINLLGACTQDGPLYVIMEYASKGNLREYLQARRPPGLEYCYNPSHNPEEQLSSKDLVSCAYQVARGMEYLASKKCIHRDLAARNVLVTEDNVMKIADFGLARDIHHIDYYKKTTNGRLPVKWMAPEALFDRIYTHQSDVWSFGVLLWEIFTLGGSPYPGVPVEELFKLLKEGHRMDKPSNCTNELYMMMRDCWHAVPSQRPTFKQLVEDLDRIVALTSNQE

Chain of EphB3(h) (human) (P54753 581-998 limits assumed): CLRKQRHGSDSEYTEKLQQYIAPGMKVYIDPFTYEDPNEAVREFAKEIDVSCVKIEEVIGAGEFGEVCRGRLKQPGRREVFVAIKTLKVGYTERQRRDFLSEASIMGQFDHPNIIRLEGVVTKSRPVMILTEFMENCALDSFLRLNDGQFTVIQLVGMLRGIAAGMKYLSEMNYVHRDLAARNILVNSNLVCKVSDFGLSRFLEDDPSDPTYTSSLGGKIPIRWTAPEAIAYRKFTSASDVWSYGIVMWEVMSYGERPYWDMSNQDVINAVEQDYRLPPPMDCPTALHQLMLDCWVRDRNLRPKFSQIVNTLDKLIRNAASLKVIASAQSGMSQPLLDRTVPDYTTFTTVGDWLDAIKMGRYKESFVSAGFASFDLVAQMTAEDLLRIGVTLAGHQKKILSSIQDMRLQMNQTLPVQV
Chain of IR(h), activated (human) (P06213 1005-1310 limits assumed): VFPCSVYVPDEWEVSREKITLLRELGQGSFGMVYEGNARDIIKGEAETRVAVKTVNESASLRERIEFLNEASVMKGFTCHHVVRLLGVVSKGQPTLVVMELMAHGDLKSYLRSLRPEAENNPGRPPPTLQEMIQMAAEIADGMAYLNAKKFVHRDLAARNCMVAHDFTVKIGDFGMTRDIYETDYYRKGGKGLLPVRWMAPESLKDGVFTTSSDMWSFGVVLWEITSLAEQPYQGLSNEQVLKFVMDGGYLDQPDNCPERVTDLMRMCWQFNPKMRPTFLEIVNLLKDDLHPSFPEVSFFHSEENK
Chain of cKit(V654A)(h) (human) (P10721 544-976 V654A): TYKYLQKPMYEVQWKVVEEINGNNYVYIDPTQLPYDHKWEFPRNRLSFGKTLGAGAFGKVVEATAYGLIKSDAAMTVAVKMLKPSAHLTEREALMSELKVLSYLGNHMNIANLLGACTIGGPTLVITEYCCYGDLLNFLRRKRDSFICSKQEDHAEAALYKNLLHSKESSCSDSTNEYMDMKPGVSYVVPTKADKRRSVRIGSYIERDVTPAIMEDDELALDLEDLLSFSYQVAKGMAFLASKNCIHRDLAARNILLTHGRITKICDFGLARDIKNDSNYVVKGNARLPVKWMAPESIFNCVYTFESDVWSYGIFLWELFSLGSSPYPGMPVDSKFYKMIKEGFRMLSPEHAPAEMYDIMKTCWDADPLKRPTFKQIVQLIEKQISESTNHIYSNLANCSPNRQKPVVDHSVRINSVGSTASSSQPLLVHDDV
Chain of mTOR/FKBP12(h) (human) (P42345 1362-2549 limits assumed, chain 1 of 2): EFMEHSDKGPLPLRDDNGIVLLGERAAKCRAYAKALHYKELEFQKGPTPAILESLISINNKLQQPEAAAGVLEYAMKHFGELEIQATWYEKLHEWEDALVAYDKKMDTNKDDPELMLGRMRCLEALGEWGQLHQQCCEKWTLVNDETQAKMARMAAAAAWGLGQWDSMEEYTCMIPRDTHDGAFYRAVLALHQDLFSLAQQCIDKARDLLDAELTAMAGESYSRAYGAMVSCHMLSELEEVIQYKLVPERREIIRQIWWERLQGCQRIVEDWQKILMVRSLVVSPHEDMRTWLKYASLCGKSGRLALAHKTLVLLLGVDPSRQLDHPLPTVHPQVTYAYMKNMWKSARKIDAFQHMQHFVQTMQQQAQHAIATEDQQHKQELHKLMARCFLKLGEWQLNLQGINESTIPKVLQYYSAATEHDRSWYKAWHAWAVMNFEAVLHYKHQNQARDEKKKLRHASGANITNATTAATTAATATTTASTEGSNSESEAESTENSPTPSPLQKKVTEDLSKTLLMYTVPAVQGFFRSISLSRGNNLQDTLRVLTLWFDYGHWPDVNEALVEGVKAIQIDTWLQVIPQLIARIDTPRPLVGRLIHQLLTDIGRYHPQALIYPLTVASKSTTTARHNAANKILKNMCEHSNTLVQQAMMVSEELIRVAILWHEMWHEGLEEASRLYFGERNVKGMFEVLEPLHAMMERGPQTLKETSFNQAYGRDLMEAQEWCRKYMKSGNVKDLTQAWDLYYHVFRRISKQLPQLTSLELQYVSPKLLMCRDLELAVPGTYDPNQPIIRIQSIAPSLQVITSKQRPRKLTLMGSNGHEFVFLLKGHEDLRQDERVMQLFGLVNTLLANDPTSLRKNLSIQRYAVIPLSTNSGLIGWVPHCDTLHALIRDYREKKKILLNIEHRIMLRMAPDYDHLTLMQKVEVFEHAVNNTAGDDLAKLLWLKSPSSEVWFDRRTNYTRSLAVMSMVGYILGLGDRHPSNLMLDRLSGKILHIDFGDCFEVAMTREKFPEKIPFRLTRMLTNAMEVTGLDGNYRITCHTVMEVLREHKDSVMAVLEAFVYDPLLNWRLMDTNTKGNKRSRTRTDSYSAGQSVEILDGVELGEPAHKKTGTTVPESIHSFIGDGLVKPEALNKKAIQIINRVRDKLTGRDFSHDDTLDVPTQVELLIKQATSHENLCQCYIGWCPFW
Chain of mTOR/FKBP12(h) (human) (P62942 whole entry, chain 2 of 2, further chain): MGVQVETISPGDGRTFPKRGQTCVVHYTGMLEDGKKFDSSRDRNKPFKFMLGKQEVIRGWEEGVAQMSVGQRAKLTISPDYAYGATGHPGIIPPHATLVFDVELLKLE
Chain of PDGFRα(D842V)(h) (human) (P16234 550-1089 D842V limits assumed): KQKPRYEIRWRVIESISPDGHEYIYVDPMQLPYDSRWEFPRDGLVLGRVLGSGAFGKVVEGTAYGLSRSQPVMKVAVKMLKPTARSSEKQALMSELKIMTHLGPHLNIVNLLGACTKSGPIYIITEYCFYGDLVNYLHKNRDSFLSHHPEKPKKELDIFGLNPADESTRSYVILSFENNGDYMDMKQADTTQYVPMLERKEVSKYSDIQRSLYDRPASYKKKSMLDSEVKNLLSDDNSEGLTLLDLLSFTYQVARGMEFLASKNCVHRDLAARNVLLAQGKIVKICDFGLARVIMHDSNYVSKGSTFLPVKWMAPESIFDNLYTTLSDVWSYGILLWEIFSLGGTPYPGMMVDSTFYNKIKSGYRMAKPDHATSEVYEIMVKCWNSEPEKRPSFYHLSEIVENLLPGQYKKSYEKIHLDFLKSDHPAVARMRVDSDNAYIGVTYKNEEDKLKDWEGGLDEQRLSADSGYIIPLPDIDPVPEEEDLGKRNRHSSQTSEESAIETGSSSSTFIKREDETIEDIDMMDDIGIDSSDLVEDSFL
Chain of Abl(T315I)(h) (human) (P00519 27-1130 T315I limits assumed): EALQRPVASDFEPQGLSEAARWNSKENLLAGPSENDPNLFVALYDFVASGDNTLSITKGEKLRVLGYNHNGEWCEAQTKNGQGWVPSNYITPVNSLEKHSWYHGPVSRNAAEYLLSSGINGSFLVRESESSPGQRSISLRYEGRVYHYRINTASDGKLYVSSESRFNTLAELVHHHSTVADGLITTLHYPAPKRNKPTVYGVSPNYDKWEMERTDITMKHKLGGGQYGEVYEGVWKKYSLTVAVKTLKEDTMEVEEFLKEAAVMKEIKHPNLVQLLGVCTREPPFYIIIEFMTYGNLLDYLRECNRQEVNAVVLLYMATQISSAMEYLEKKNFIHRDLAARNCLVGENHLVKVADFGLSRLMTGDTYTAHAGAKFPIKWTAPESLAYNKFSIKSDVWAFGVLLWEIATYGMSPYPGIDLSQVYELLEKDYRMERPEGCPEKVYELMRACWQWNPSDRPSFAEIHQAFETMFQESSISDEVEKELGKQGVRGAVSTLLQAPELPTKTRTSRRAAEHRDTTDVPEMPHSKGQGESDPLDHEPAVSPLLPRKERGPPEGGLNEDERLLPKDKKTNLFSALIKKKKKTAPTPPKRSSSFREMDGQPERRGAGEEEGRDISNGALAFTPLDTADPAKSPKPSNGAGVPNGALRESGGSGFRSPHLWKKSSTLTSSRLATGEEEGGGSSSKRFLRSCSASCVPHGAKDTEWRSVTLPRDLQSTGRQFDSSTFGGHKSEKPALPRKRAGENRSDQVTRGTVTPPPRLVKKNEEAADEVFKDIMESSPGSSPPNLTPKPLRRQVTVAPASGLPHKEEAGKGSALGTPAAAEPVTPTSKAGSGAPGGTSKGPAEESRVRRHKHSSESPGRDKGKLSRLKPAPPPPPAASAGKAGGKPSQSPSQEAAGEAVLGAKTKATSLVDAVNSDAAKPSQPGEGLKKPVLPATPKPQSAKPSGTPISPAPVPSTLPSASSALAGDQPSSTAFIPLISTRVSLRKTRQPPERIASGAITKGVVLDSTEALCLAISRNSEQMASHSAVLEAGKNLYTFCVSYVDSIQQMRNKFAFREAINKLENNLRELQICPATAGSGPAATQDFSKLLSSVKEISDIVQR
Chain of FGFR3(h) (human) (P22607 448-759 limits assumed): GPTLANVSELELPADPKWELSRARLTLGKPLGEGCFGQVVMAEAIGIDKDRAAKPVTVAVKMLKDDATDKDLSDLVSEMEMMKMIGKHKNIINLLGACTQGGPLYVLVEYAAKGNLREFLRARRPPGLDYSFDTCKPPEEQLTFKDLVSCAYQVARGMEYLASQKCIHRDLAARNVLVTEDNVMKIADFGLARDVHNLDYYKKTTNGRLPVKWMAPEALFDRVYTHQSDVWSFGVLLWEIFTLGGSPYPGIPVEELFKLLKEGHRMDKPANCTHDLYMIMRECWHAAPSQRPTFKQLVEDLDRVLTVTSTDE

Substance	% activity at 100 µM [1] [%]	% activity at 100 µM [2] [%]	% activity at 100 µM [3] [%]	% activity at 100 µM [4] [%]	% activity at 100 µM [5] [%]	% activity at 100 µM [6] [%]	% activity at 100 µM [7] [%]	% activity at 100 µM [8] [%]	% activity at 100 µM [10] [%]	% activity at 100 µM [13] [%]	% activity at 100 µM [15] [%]	% activity at 100 µM [16] [%]	% activity at 100 µM [17] [%]	% activity at 100 µM [18] [%]	% activity at 100 µM [21] [%]	% activity at 100 µM [22] [%]	% activity at 100 µM [23] [%]	% activity at 100 µM [26] [%]	% activity at 100 µM [27] [%]	% activity at 100 µM [28] [%]	further results
MMI-0500 (peptide)	16	18	8	59	65	1	0	79	90	15	18	0	22	4	46	20	80	223	140	3	% activity at 100 µM [9]: 10%; % activity at 100 µM [11]: 49%; % activity at 100 µM [12]: 95%; % activity at 100 µM [14]: 359%; % activity at 100 µM [19]: 170%; % activity at 100 µM [20]: 45%; % activity at 100 µM [24]: 122%; % activity at 100 µM [25]: 133%
MMI-0300 (peptide)	97	–	94	79	91	1	10	62	79	101	48	2	77	45	47	79	90	134	145	35	% activity at 100 µM [29]: 74%; % activity at 100 µM [11]: 133%; % activity at 100 µM [14]: -2%
MMI-0400 (peptide)	–	94	92	76	87	2	17	47	59	94	44	1	75	36	34	73	96	150	125	33	% activity at 100 µM [29]: 74%; % activity at 100 µM [9]: 0%; % activity at 100 µM [12]: 122%; % activity at 100 µM [19]: 118%; % activity at 100 µM [20]: 98%; % activity at 100 µM [24]: 131%; % activity at 100 µM [25]: 151%
